# Reference: patent US20090258007A1 (Kyowa Kirin, published 2009)
# Assays:
# [1] = target: T1, human PERP with myc-His tag expressed in CHO/DG44 cells (PERP/CHO cell) (human, UniProt Q96FX8 1-193); test: flow cytometry on PERP/CHO cells against CHO/DG44 cells, 10 µg/ml
# T1 construct: Four-pass membrane protein of 193 amino acids; On intact cells in FMAT and flow cytometry; as Triton X lysate in sandwich ELISA and immunoprecipitation; SDS-denatured in Western blotting; also called PERP/CHO cells; PERP-expressing cell line; not shown: C-terminal myc-His tag from pcDNA 3.1(-)/myc-His C
# Method: As the cells, PERP/CHO cells and CHO/DG44 cells were used. The cells which were cultured for 2 to 3 days on an Iscove's Modified Dulbecco's medium (manufactured by Invitrogen) containing 10% fetal bovine serum and peeled off by 0.02% EDTA solution (manufactured by Nacalai Tesque) were washed with PBS and blocked for 20 minutes at ice temperature using BSA-PBS in order to avoid non-specific antibody adsorption. […] Again, washing was carried out 3 times using PBS by a centrifugation method, followed by suspension in PBS, and wavelength of 510 to 530 nm excited by laser beam 488 nm Ar was measured by a flow cytometer (manufactured by Beckman Coulter).
# [2] = target: T1, human PERP with myc-His tag expressed …; test: flow cytometry on PERP/CHO cells, 5-fold dilutions from 20 µg/mL
# Method: After washing with a buffer for FCM twice, a solution in which PE-labeled anti-human IgG (H+L) antibody (manufactured by Beckman Coulter) was diluted 50-fold with a buffer for FCM was added thereto at 50 μL/well. After reaction in ice shading from the light for 30 minutes, washing with a buffer for FCM was carried out 3 times and fluorescence intensity was measured using a flow cytometer.
binding result [1],binding result [2],Binder
binds,–,"anti-PERP mouse antibody KM3411 (antibody, V domains shown, Used as hybridoma culture supernatant or purified antibody; also called monoclonal antibody KM3411; monoclonal antibody produced by hybridoma KM3411 (FERM BP-8643)) VH: DVQLQESGPGLVKPSQSLSLTCTVTGFSITTEYAWNWIRQFPGNRLEWMGYIGYTGRTNYSPSLKSRISITRDTSKNQFFLQLNSVTTEDTATYYCTRMDYWGQGTSVTVSS VL: QIVLIQSPVIMSASPGEKVTITCSASSSVSYMHWFQQKPGTSPKLWIYSTSNLASGVPARFSGSGSGTSYSLTISRMEAEDAATYYCQQRSSYPPTFGAGTKLELK"
–,binds,"anti-PERP chimeric antibody KM3481 (antibody, V domains shown, Human chimeric antibody: VH and VL of KM3411 with human CH and CL from the vector pKANTEX93 (WO 97/10354)) VH: DVQLQESGPGLVKPSQSLSLTCTVTGFSITTEYAWNWIRQFPGNRLEWMGYIGYTGRTNYSPSLKSRISITRDTSKNQFFLQLNSVTTEDTATYYCTRMDYWGQGTSVTVSS VL: QIVLIQSPVIMSASPGEKVTITCSASSSVSYMHWFQQKPGTSPKLWIYSTSNLASGVPARFSGSGSGTSYSLTISRMEAEDAATYYCQQRSSYPPTFGAGTKLELK"
